Experimental findings from the nanobody polyreactivity screen of Harvey et al. (2022) are described below.

The data set is described as follows: yeast display, Sf9 membrane polyspecificity reagent, FACS + sequencing; frameworks hold sequencing errors. The method, boiled down:
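Genes from sorted yeast were amplified by colony PCR, read by MiSeq 2 × 250 sequencing and filtered on CDR length. These cells carried a synthetic nanobody library in Saccharomyces cerevisiae BJ5465 and were sorted by FACS into low and high (top ~1%) gates on anti-HA and streptavidin fluorescence. Polyreactivity is labelled according to the gate of origin.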
Take “QVQLVESGGGLVQAGGSLRLSCAASGGTFPRYAMGWYRQAPGKERELVAAISRSGGSTYYADSVKGRFTISRDNAKNTVYLQMNSLKPEDTAVYYCATGYSYIMDYWGQGTQVTVSS”: the “polyreactivity (PSR sort gate)” value is “high polyreactivity”.

Regarding “QVQLVESGGGLVQAGGSLRLSCAASGRIFDRYGMGWYRQAPGKERELLAAITSRGGSTYYADSVKGRFTISRDNAKNTVYLQMNSLKPEDTAVYYCAAYGRYGFGRVERYDYWGQGTQVTVSS”, the “polyreactivity (PSR sort gate)” value is “high polyreactivity”.

Regarding “QVQLVESGGGLVQAGGSLRLSCAASGRIFFIYPMGWYRQAPGKERELVAGINRTGGSTYYADSVKGRFTISRDNAKNTVYLQMNSLKPEDTAVYYCAAVSYYASDYRYDYWGQGTQVTVSS”, the “polyreactivity (PSR sort gate)” value is “low polyreactivity”.

As to “QVQLVESGGGLVQAGGSLRLSCAASGGTFGTNTMGWYRQAPGKERELVAAISKRGGRTYYADSVKGRFTISRDNAKNTVYLQMNSLKPEDTAVYYCAADTGGNPKYDYWGQGTQVTVSS”, the “polyreactivity (PSR sort gate)” value is recorded as “high polyreactivity”.

In the case of “QVQLVESGGGLVQAGGSLRLSCAASGRIFYFYAMGWYRQAPGKEMELVAAISTSGGSTYYADSVKGRFTISRDNAKNTVYLQMNSLKPEDTAVYYCNADGYQSRWYYYNYDYWGQGTQVTVSS”, the “polyreactivity (PSR sort gate)” value is given as “low polyreactivity”.

Regarding “QVQLVESGGGLVQAGGSLRLSCAATGSIFRRNAMGGYRQAPGKERELVAAISSNGGSTYYADSVKGRFTISRDNAKNTVYLQMNSLKPEDTAVYYCNALGRVRYPFDYWGQGTQVTVSS”, the “polyreactivity (PSR sort gate)” value is reported as “high polyreactivity”.

As to “QVQLVESGGGLVQAGGSLRLSCAASGYIFDRYAMGWYRQAPGKERELVAAISGRGGSTYYADSVKGRFTISRDNAKNTVYLQKNSLKPEDTAFYYCARDVYVRNGQRARYDSWGQGTQVTVSS”, the “polyreactivity (PSR sort gate)” value is “high polyreactivity”.

On to “QVQLVESGGGLVQAGGSLRLSCGASGFTFYSYAMGWYRPARGKARELVATITKSGGNTYYADSVKGRFTISRDNAKNTVYLQMTSLKPVDTAVYYCAAATKVGRYKRKTVSYYYWCQGTQVTVSS”, for which the “polyreactivity (PSR sort gate)” value is listed as “high polyreactivity”.

With “QVQLVESGGGLVQAGGSLRLSCAASGSIFNRYAMGWYRQAPGKERELVAAISSTGSTYYADSVKGRFTISRDNAKNTVYLQMNSLKPEDTAVYYCNADATHDWLRVDTYEYWGQGTQVTVSS”, the “polyreactivity (PSR sort gate)” value is reported as “low polyreactivity”.

Turning to “QVQLVESGGGLVQEGGSLRLRCAASGRTFPINAMGWYRQAPGKERELVASIRWTDGTTYYADSVKGRFTISRDTAKNTVYLQMNSLKPEDTAVYYCAADAEGSASKYVYWGQGTQVTVSS”, the “polyreactivity (PSR sort gate)” value is “low polyreactivity”.

Take “QVQLVESGGGLVQEGGSLLLSCDASGFTFAVYAMGWYRQAPGKERELVAAITTSGTRTYNADSVKGRFTISRDNAKNTVYLQMNSLKPEDTAVYYCAAVVFRQWPEFDYWGQGTQVTVSS”: the “polyreactivity (PSR sort gate)” value is recorded as “low polyreactivity”.

For the sequence “QVQLVESGGGLVQAGGSLRISCAASGRTFLSNAMGWYRQAPGKERELVAAISNGDNTYYADSVKGRFTISRDNAKNTVYLQMNSLKPEDTAVYYCAADQYWSWIYYPVVEYDYWGQGTQVTVSS”, the “polyreactivity (PSR sort gate)” value is given as “low polyreactivity”.

As to “QVQLVESGGGLVQAGGSLRLSCAASGRTFPTYAMGWYRQAPGKERELVATISYNGGRTYYADSVKGRFTISRDNAKNTVYLQMNSLKPEDTAVYDCNAVVYVVGDFDYWGQGTQVTVSS”, the “polyreactivity (PSR sort gate)” value is reported as “high polyreactivity”.

For “QVQLVESGAGLVQAGGSLRLRCAASGSIFPGSALGWYRQARGKERELVAAITFGGAITYYADSVKGRFTISRDNAKNTVYLLMNSLKPEDSAVYYCAAKSPRILLDYWGQGTQVTVSS”, the “polyreactivity (PSR sort gate)” value is on record as “low polyreactivity”.

Take “QVQLVESGGGLVQAGGSLRLSCAASGRTFIFYAMGWYRQAPGNERELVAAITLRGGGTDYADSVKGRFTISRDNAKYNVYLQMNSQKPEETAVYYCNADGYAVPRWFDPYSYLSDYWGQGTQVTVSS”: the “polyreactivity (PSR sort gate)” value is “low polyreactivity”.

With “QVQLVESGGGLVQAGGSLRLSCAASGSIFKTNAMGWYRQAPGKERELVAGISNGGSTNYADSVKGRFTISRDNAKNTVYFQMNSLKPEDTAVYYCAAEYEYLWSQYLTDYGYDSWGQGTQVTVSS”, the “polyreactivity (PSR sort gate)” value is “low polyreactivity”.

Regarding “QVQLVESVGGLVQAGGSLRLSCAASGFIFAFYAMGWYRQAPGKESELVAAIRTGGSTNYADSVKGRFTISRDNAKNTVYLQMNSLKPEDTAVYYCAAYGRGGYWRWERDYWGLGTQVTVSS”, the “polyreactivity (PSR sort gate)” value was “high polyreactivity”.

Take “QVQLVESGGGLVQAGGSLRLSCAASGSIFNTNAMGWYRQAPGKERELVAAISKNAGRTFYADSVKGRFTISRDNAKNTVYLQMNSLKPEDTAVYYCAARGVGPQPGYQRFNYWGQGTQVTVSS”: the “polyreactivity (PSR sort gate)” value was “high polyreactivity”.

Take “QFQLVESRGGLVQAGGSLRLSCAASGFIFTHYAMGWYRQAPGKERELVAAITRRGGDTHYADSVKGRFTISRDNPKNTVYLQMNSLKPEDTAVYYSNAKRYSWGYYPAFDYWGHGTQVTVSS”: the “polyreactivity (PSR sort gate)” value is recorded as “high polyreactivity”.

For “QVQLVESGGCLVQAGGSLRLSCPASGSTIGKYAMGWYRQAPRKERELFATITVSGGNTNYADSVKGRITISRDNAKITVYLQMNSLKPEDTAVYYCAARKYVAGHKYIMKYWGQGTQVTVSS”, the “polyreactivity (PSR sort gate)” value is given as “low polyreactivity”.

With “QVQLVESGGRLVQAGGSLRLSCAASGGIFPPNAKGWYRQAPGKERELVASISSDGSTNYADSVKGRFTISRDNAKNTVYLQMNSLKPEDTAVYYCAADSTTSWARLHVRRFYYWGQGTQVTVSS”, the “polyreactivity (PSR sort gate)” value is on record as “low polyreactivity”.

In the case of “QVQLVESGGGLVQAGGSLRLSCAASGSTFGYYTKGWYRQAPGKERELVAAITWSGGSTYYADSVKGRFTISRDNAKNTVYLQMNSLKPEDTAVYYCAADDYWTPFGYWGQGTQVTVSS”, the “polyreactivity (PSR sort gate)” value was “low polyreactivity”.

For “QVQLVESGGGLVQAGVSLRLSCAASGFIFPYYAMGWYRQAPGKERELVAAITRGGRTYYADSVKGRFTISRDNAKNTVYLQMNSLKPEDTAVYYCAARSVGKRGYDYWGLGTQVTVSS”, the “polyreactivity (PSR sort gate)” value is on record as “high polyreactivity”.

In the case of “QVQLVESGGGLDQAGGSLRLSCAASGSIFWSYDRGWYRQAPGKETELVATITSGDSTYYADSVKGRFTISRDNEKNTVYLPMKSLKPEDTAVYYCAAGTFYRPTYCHREYDYWGQGTQVTVSS”, the “polyreactivity (PSR sort gate)” value is recorded as “low polyreactivity”.

For “QVQLVESGGGLVQAGGSLRLSCAASGRIFQGNAMGWYRQAPGKERELVAAITSSGSSTYYADSVKGRFTISRDNAKNTVYLQMNSLKPEDTAVYYCAARATGPIMYYWGQGTQVTVSS”, the “polyreactivity (PSR sort gate)” value is “high polyreactivity”.

Consider “QVQLVESGGGLVQAGGSLRLSCAASGRTFYSNAMGWYRPAPGKERELGATISSGGSTNYADSVKGRFTISRDTAKNTVYLQINSVKPADTAVYYCDTRPDRINDYWGQGTQVTVSS”, for which the “polyreactivity (PSR sort gate)” value is given as “low polyreactivity”.

Regarding “QVQLVESGGGLVQAGGSLRLSCAASGIIFTIYTMGWYRQAPGKERELVAAITRSGGSTYYADSVKGRFTISRDNAKNTVYLQMNSLKPEDTAVYYCAAEWQYPDGDDVGSWRYYYWGQGTQVTVSS”, the “polyreactivity (PSR sort gate)” value was “high polyreactivity”.

As for “QVQLVESGGGLVQAGGSLRLSCAASGFIFSGYVMGWYRQAPGKERELVAAITGSDGSTYYADSVKGRFTISRDNAKNTVYLQMNSLKPEDTAVYYCATTFQYYWFSLYDYWGQGTQVTVSS”, the “polyreactivity (PSR sort gate)” value is listed as “low polyreactivity”.

For “QVQIVESGGGLVQAGGSLRLSCAASGRTFRVNAMGWYRQAPGKERELVAAISSSGGSTYYADSVKGRFTISRDNAKNTVYLQMNSLKPEDTAVYYCAAVVGGYRYDYLGQGTQVTVSS”, the “polyreactivity (PSR sort gate)” value was “high polyreactivity”.

For the sequence “QVQLVESGGGLVQAGGSLRLSCAASAYTFYAMGWYRQAPGKERELVAAITYRGARTYYADSVKRRFTISRDNEKNTVYLQMNSLKPEYTAVYYCNADYWGQGTQVTVSS”, the “polyreactivity (PSR sort gate)” value was “low polyreactivity”.
